Laboratory results as given in patent US20050142131A1 (Eli Lilly, published 2005).

What was measured:
β-amyloid peptide (1-42) [1] = target: T1, β-amyloid peptide (1-42) (UniProt P05067 672-713); experiment: BIAcore 2000 SPR; antibody captured, Aβ flowed over; biphasic, second affinity; Aβ 1-42; biphasic, low-affinity component
T1 construct: range 1-42; The range 1-42 counts on the Aβ peptide, not on the APP precursor; also called Aβ 1-42; Amyloid-beta 1-42
Procedure: (§1) Antibody affinity (KD=Kd/Ka) was determined using a BIAcore biosensor 2000 and data analyzed with BIAevaluation (v. 3.1) software. A capture antibody (rabbit anti-mouse Ig or anti-human Ig) was coupled via free amine groups to carboxyl groups on flow cell 2 of a biosensor chip (CM5) using N-ethyl-N-dimethylaminopropyl carbodiimide and N-hydroxysuccinimide (EDC/NHS). A non-specific rabbit IgG was coupled to flow cell 1 as a background control. Monoclonal antibodies were captured to yield 300 resonance units (RU). […] To regenerate the chip, bound anti-Aβ antibody was eluted from the chip using a wash with glycine-HCl (pH 2). A control injection containing no amyloid-beta served as a control for baseline subtraction.

β-amyloid peptide (1-42) [2] = target: T1, β-amyloid peptide (1-42); experiment: competitive ELISA on coated Aβ 1-42 against biotinylated Mu10D5; mean of three experiments (SD 0.6 µg/mL), second set; second set of three experiments (SD 0.6 µg/mL)
Procedure: (§2) After washing the wells with phosphate buffered saline (PBS) containing 0.1% Tween 20 (Washing Buffer) using an ELISA plate washer, the wells were blocked by adding 300 μL of SuperBlock reagent (Pierce) per well. After 30 minutes of blocking, the wells were washed with Washing Buffer and excess liquid was removed.
(§3) As a background control, 100 μl of ELISA Buffer was added. The ELISA plate was incubated at room temperature for 90 min. […] The plate was incubated at room temperature for 30 min and washed with Washing Buffer. For color development, 100 μl/well of ABTS Peroxidase Substrate (Kirkegaard & Perry Laboratories) was added. Color development was stopped by adding 100 μl/well of 2% oxalic acid. […] The absorbances were plotted against the log of the competitor concentration, curves were fit to the data points (using Prism) and the IC50 was determined for each antibody using methods well-known in the art.

β-amyloid peptide (1-42) [3] = target: T1, β-amyloid peptide (1-42); experiment: BIAcore 2000 SPR; antibody captured, Aβ flowed over; biphasic, first affinity; Aβ 1-42; biphasic, high-affinity component
Procedure: as §1

mouse Aβ 1-40 = target: T2, mouse Aβ 1-40 (mouse, UniProt P12023 672-711); experiment: BIAcore, single concentration of peptide
T2 construct: range 1-40; The range counts on the Aβ peptide, not on the mouse APP precursor
T2 peptide (looked up): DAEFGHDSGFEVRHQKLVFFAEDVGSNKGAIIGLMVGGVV
Source text: (§4) All dilutions were made with HEPES buffered saline containing Tween 20. A single concentration of a variety of fragments of human Aβ or mouse Aβ 1-40 (BioSource International) was used.

[4] = target: T3, human amyloid beta fragment 1-10 (human, UniProt P05067 672-681); experiment: BIAcore, single concentration of peptide
T3 construct: range 1-10; also called human Aβ 1-10
T3 peptide (looked up): DAEFRHDSGY
Source text: as §4

human Aβ fragment 10-20 = target: T4, human Aβ fragment 10-20 (human, UniProt P05067 681-691); experiment: BIAcore, single concentration of peptide
T4 construct: range 10-20; also called human amyloid beta 10-20
T4 peptide (looked up): YEVHHQKLVFF
Source text: as §4

[5] = target: T5, human amyloid beta fragment 1-20 (human, UniProt P05067 672-691); experiment: BIAcore, single concentration of peptide
T5 construct: range 1-20; also called human Aβ 1-20
T5 peptide (looked up): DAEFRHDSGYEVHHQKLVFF
Source text: as §4

human Aβ fragment 16-25 = target: T6, human Aβ fragment 16-25 (human, UniProt P05067 687-696); experiment: BIAcore, single concentration of peptide
T6 construct: range 16-25; also called human amyloid beta 16-25
T6 peptide (looked up): KLVFFAEDVG
Source text: as §4

β-amyloid peptide (1-42) [6] = target: T1, β-amyloid peptide (1-42); experiment: competitive ELISA on coated Aβ 1-42 against biotinylated Mu10D5; mean of three experiments (SD 11.8 µg/mL), first set; first set of three experiments (SD 11.8 µg/mL)
Procedure: as §2, §3

Amyloid-beta 1-40 = target: T7, Amyloid-beta 1-40 (UniProt P05067 672-711); experiment: BIAcore 2000 SPR; antibody captured by anti-human Ig, Aβ flowed over; Aβ 1-40; monophasic
T7 construct: range 1-40; The range 1-40 counts on the Aβ peptide, not on the APP precursor; also called Aβ 1-40
Procedure: as §1

B1: humanized 10D5 antibody (antibody, human IgG1, kappa, V domains shown)
VH: QVTLKESGPVLVKPTETLTLTCTFSGFSLSTSGMGVSWIRQPPGKALEWLAHIYWDDDKRYNPSLKSRLTISKDTSKSQVVLTMTNMDPVDTATYYCVRRPITPVLVDAMDYWGQGTLVTVSS
VL: DVVMTQSPLSLPVTLGQPASISCRSSQNIIHSNGNTYLEWYLQKPGQSPRLLIYKVSNRFSGVPDRFSGSGSGTDFTLKISRVEAEDVGVYYCFQGSHVPLTFGGGTKVEIKR
notes: also called Hu10D5
β-amyloid peptide (1-42) [1]
  Kd: 1020 nM
β-amyloid peptide (1-42) [2]
  IC50: 16 µg/mL
β-amyloid peptide (1-42) [3]
  Kd: 0.19 nM
Mouse Aβ 1-40
  binding result: no binding
[4]
  binding result: binds
Human Aβ fragment 10-20
  binding result: no binding
[5]
  binding result: binds
Human Aβ fragment 16-25
  binding result: no binding
β-amyloid peptide (1-42) [6]
  IC50: 49.1 µg/mL
Amyloid-beta 1-40
  Kd: 209 nM
